{"source": "patent US20220227814A1", "about": "(NEVADA RESEARCH AND INNOVATION, published 2022)", "binders": {"B1": {"name": "CSP1-cyc(Orn6D10) (peptide)", "peptide": "EMRLSXFFRDFILQRKK", "modifications": "Orn (ornithine) at position 6; side chain-to-side chain lactam between Orn6 and Asp10"}, "B2": {"name": "CSP1-cyc(Orn6E10) (peptide)", "peptide": "EMRLSXFFREFILQRKK", "modifications": "Orn (ornithine) at position 6; side chain-to-side chain lactam between Orn6 and Glu10"}}, "note": "Bridge positions count the residues as written; N and C are the ends. Square brackets hold non-standard residues; d marks the D form. Ends that are not written are not given here. Dap = NC[C@H](N)C(=O)O"}
{"target": "T1, ComD2 receptor (Streptococcus pneumoniae)", "experiment": "cell-based or functional assay", "units": {"fold inhibition potency compared to CSP2-E1Ad10": "fold", "fold potency compared to CSP2": "fold", "fold decrease in fold potency compared to CSP1-cyc(Dab6E10) and CSP1-cyc(Dap6E10)": "fold", "fold inhibition potency compared to CSP1-E1A-cyc(Dap6E10)": "fold"}}
{"binder": "AMRLS[Dap]FFREFILQRKK (lactam 6-10)", "note": "[CSP1-E1A-cyc(Dap6E10)]", "fold inhibition potency compared to CSP2-E1Ad10": 3}
{"binder": "EMRLSXFFREFILQRKK (Dap at position 6; side chain-to-side chain lactam between Dap6 and Glu10)", "note": "[CSP1-cyc(Dap6E10)]", "fold potency compared to CSP2": "~4"}
{"binder": "B1", "fold decrease in fold potency compared to CSP1-cyc(Dab6E10) and CSP1-cyc(Dap6E10)": "> 30"}
{"binder": "AMRLS[Dap]FFREFILQR (lactam 6-10)", "note": "[CSP1-E1A-des-K16K17-cyc(Dap6E10)]", "fold inhibition potency compared to CSP1-E1A-cyc(Dap6E10)": 3}
{"target": "T2, ComD1 receptor (Streptococcus pneumoniae)", "experiment": "cell-based or functional assay", "units": {"fold potency compared to CSP1-cyc(Orn6D10)": "fold", "maximal induction of comX compared to CSP1": "%", "fold reduction in potency against CSP1": "fold", "fold inhibition potency compared to CSP1-E1A-cyc(Dap6E10)": "fold"}}
{"binder": "EMRLSXFFREFILQRKK (Dap at position 6; side chain-to-side chain lactam between Dap6 and Glu10)", "note": "[CSP1-cyc(Dap6E10)]", "fold potency compared to CSP1-cyc(Orn6D10)": 10, "maximal induction of comX compared to CSP1": 100}
{"binder": "EMRLSKFFRDFILQRKK (lactam 6-10)", "note": "[CSP1-cyc(K6D10)]", "maximal induction of comX compared to CSP1": 44}
{"binder": "EMRLSXFFREFILQRKK (Dab at position 6; side chain-to-side chain lactam between Dab6 and Glu10)", "note": "[CSP1-cyc(Dab6E10)]", "fold potency compared to CSP1-cyc(Orn6D10)": 10, "maximal induction of comX compared to CSP1": 100}
{"binder": "EMRLSKFFDDFILQRKK", "note": "[CSP1 with Arg9 replaced with Asp (linear)]", "fold reduction in potency against CSP1": "> 100"}
{"binder": "B1", "maximal induction of comX compared to CSP1": 100}
{"binder": "AMRLS[Dap]FFREFILQR (lactam 6-10)", "note": "[CSP1-E1A-des-K16K17-cyc(Dap6E10)]", "fold inhibition potency compared to CSP1-E1A-cyc(Dap6E10)": "~10"}
{"target": "T1, ComD2 receptor", "experiment": "cell-based or functional assay", "remark": "another data set of the same source", "units": {"EC50 (reporter strain)": "nM", "IC50 (reporter strain)": "nM", "EC50/IC50 (kind not distinguishable; reporter strain)": "nM"}}
{"binder": "EMRLSKFFRDFILDRKK (lactam 6-14)", "note": "[CSP1-cyc(K6D14)]", "EC50 (reporter strain)": "> 1000"}
{"binder": "AMRLS[Dap]FFREFILQRKK (lactam 6-10)", "note": "[CSP1-E1A-cyc(Dap6E10)]", "IC50 (reporter strain)": 182}
{"binder": "EMRLSXFFREFILQRKK (Dap at position 6; side chain-to-side chain lactam between Dap6 and Glu10)", "note": "[CSP1-cyc(Dap6E10)]", "EC50 (reporter strain)": 13.1}
{"binder": "EMRLSXFFRDFILQRKK (Dap at position 6; side chain-to-side chain lactam between Dap6 and Asp10)", "note": "[CSP1-cyc(Dap6D10)]", "EC50 (reporter strain)": "> 1000"}
{"binder": "EMRLSKFFREFILQRKK (lactam 6-10)", "note": "[CSP1-cyc(K6E10)]", "EC50 (reporter strain)": "> 1000"}
{"binder": "B2", "EC50 (reporter strain)": "> 1000"}
{"binder": "EMRLSKFFDDFILQRKK (lactam 6-9)", "note": "[CSP1-cyc(K6D9)]", "EC50 (reporter strain)": 528}
{"binder": "EMRLSXFFREFILQRKK (Dab at position 6; side chain-to-side chain lactam between Dab6 and Glu10)", "note": "[CSP1-cyc(Dab6E10)]", "EC50 (reporter strain)": 31.4}
{"binder": "EMRISRIILDFLFLRKK", "note": "[CSP2 (competence stimulating peptide 2)]", "EC50 (reporter strain)": 50.7}
{"binder": "EMRLSXFFRDFILQRKK (Dab at position 6; side chain-to-side chain lactam between Dab6 and Asp10)", "note": "[CSP1-cyc(Dab6D10)]", "EC50 (reporter strain)": "> 1000"}
{"binder": "AMRLSXFFREFILQRKK (Dab at position 6; side chain-to-side chain lactam between Dab6 and Glu10)", "note": "[CSP1-E1A-cyc(Dab6E10)]", "EC50/IC50 (kind not distinguishable; reporter strain)": "> 1000"}
{"binder": "B1", "EC50 (reporter strain)": "> 1000"}
{"binder": "AMRLS[Dap]FFREFILQR (lactam 6-10)", "note": "[CSP1-E1A-des-K16K17-cyc(Dap6E10)]", "IC50 (reporter strain)": 67.2}
{"target": "T2, ComD1 receptor", "experiment": "cell-based or functional assay", "remark": "another data set of the same source", "units": {"EC50 (reporter strain)": "nM", "IC50 (reporter strain)": "nM"}}
{"binder": "EMRLSKFFRDFILDRKK (lactam 6-14)", "note": "[CSP1-cyc(K6D14)]", "EC50 (reporter strain)": "> 1000"}
{"binder": "AMRLS[Dap]FFREFILQRKK (lactam 6-10)", "note": "[CSP1-E1A-cyc(Dap6E10)]", "IC50 (reporter strain)": 75.8}
{"binder": "EMRLSKFFRDFILQRKK", "note": "[CSP1 (competence stimulating peptide 1)]", "EC50 (reporter strain)": 10.3}
{"binder": "EMRLSXFFREFILQRKK (Dap at position 6; side chain-to-side chain lactam between Dap6 and Glu10)", "note": "[CSP1-cyc(Dap6E10)]", "EC50 (reporter strain)": 14.6}
{"binder": "EMRLSKFFRKFILDRKK (lactam 10-14)", "note": "[CSP1-cyc(K10D14)]", "EC50 (reporter strain)": 257}
{"binder": "EMRLSXFFRDFILQRKK (Dap at position 6; side chain-to-side chain lactam between Dap6 and Asp10)", "note": "[CSP1-cyc(Dap6D10)]", "EC50 (reporter strain)": 435}
{"binder": "EMRLSKFFREFILQRKK (lactam 6-10)", "note": "[CSP1-cyc(K6E10)]", "EC50 (reporter strain)": 350}
{"binder": "EMRLSKFFRDFILQRKK (lactam 6-10)", "note": "[CSP1-cyc(K6D10)]", "EC50 (reporter strain)": 258}
{"binder": "B2", "EC50 (reporter strain)": 422}
{"binder": "EMRLSKFFDDFILQRKK (lactam 6-9)", "note": "[CSP1-cyc(K6D9)]", "EC50 (reporter strain)": "> 1000"}
{"binder": "EMRLSXFFREFILQRKK (Dab at position 6; side chain-to-side chain lactam between Dab6 and Glu10)", "note": "[CSP1-cyc(Dab6E10)]", "EC50 (reporter strain)": 12.2}
{"binder": "EMRISRIILDFLFLRKK", "note": "[CSP2 (competence stimulating peptide 2)]", "EC50 (reporter strain)": 1650}
{"binder": "EMRLSXFFRDFILQRKK (Dab at position 6; side chain-to-side chain lactam between Dab6 and Asp10)", "note": "[CSP1-cyc(Dab6D10)]", "EC50 (reporter strain)": 59.5}
{"binder": "AMRLSXFFREFILQRKK (Dab at position 6; side chain-to-side chain lactam between Dab6 and Glu10)", "note": "[CSP1-E1A-cyc(Dab6E10)]", "IC50 (reporter strain)": 173}
{"binder": "B1", "EC50 (reporter strain)": 193}
{"binder": "AMRLS[Dap]FFREFILQR (lactam 6-10)", "note": "[CSP1-E1A-des-K16K17-cyc(Dap6E10)]", "IC50 (reporter strain)": 7.57}
{"target": "T1, ComD2 receptor", "experiment": "cell-based or functional assay", "remark": "another data set of the same source", "units": {"IC50 (ComD2 EC50/IC50; β-gal reporter)": "nM", "EC50/IC50 (kind not distinguishable; β-gal reporter)": "nM", "EC50 (ComD2 EC50/IC50; β-gal reporter)": "nM"}}
{"binder": "AMRLS[Dap]FFREFILQRKK (lactam 6-10)", "note": "[CSP1-E1A-cyc(Dap6E10)]", "IC50 (ComD2 EC50/IC50; β-gal reporter)": 182}
{"binder": "AMRLSKFFRDFILQRKK", "note": "[CSP1-E1A]", "EC50/IC50 (kind not distinguishable; β-gal reporter)": "> 10000"}
{"binder": "AMRISRIIL[dD]FLFLRKK", "note": "[CSP2-E1Ad10]", "IC50 (ComD2 EC50/IC50; β-gal reporter)": 56.5}
{"binder": "EMRISRIILDFLFLRKK", "note": "[CSP2 (competence stimulating peptide 2)]", "EC50 (ComD2 EC50/IC50; β-gal reporter)": 50.7}
{"binder": "EMRISRIIL[dD]FLFLRKK", "note": "[CSP2-d10]", "EC50 (ComD2 EC50/IC50; β-gal reporter)": 2.86}
{"binder": "EMRLSAFFRDFILQRKK", "note": "[CSP1-K6A]", "EC50 (ComD2 EC50/IC50; β-gal reporter)": 24}
{"binder": "AMRLSXFFREFILQRKK (Dab at position 6; side chain-to-side chain lactam between Dab6 and Glu10)", "note": "[CSP1-E1A-cyc(Dab6E10)]", "EC50/IC50 (kind not distinguishable; β-gal reporter)": "> 1000"}
{"binder": "AMRLS[Dap]FFREFILQR (lactam 6-10)", "note": "[CSP1-E1A-des-K16K17-cyc(Dap6E10)]", "IC50 (ComD2 EC50/IC50; β-gal reporter)": 67.2}
{"target": "T2, ComD1 receptor", "experiment": "cell-based or functional assay", "remark": "another data set of the same source", "units": {"IC50 (ComD1 EC50/IC50; β-gal reporter)": "nM", "EC50 (ComD1 EC50/IC50; β-gal reporter)": "nM", "EC50/IC50 (kind not distinguishable; β-gal reporter)": "nM"}}
{"binder": "AMRLS[Dap]FFREFILQRKK (lactam 6-10)", "note": "[CSP1-E1A-cyc(Dap6E10)]", "IC50 (ComD1 EC50/IC50; β-gal reporter)": 75.8}
{"binder": "EMRLSKFFRDFILQRKK", "note": "[CSP1 (competence stimulating peptide 1)]", "EC50 (ComD1 EC50/IC50; β-gal reporter)": 10.3}
{"binder": "AMRLSKFFRDFILQRKK", "note": "[CSP1-E1A]", "IC50 (ComD1 EC50/IC50; β-gal reporter)": 85.7}
{"binder": "AMRISRIIL[dD]FLFLRKK", "note": "[CSP2-E1Ad10]", "EC50/IC50 (kind not distinguishable; β-gal reporter)": "> 1000"}
{"binder": "EMRISRIILDFLFLRKK", "note": "[CSP2 (competence stimulating peptide 2)]", "EC50 (ComD1 EC50/IC50; β-gal reporter)": 1650}
{"binder": "EMRISRIIL[dD]FLFLRKK", "note": "[CSP2-d10]", "EC50 (ComD1 EC50/IC50; β-gal reporter)": 513}
{"binder": "EMRLSAFFRDFILQRKK", "note": "[CSP1-K6A]", "EC50 (ComD1 EC50/IC50; β-gal reporter)": 51}
{"binder": "AMRLSXFFREFILQRKK (Dab at position 6; side chain-to-side chain lactam between Dab6 and Glu10)", "note": "[CSP1-E1A-cyc(Dab6E10)]", "IC50 (ComD1 EC50/IC50; β-gal reporter)": 173}
{"binder": "AMRLS[Dap]FFREFILQR (lactam 6-10)", "note": "[CSP1-E1A-des-K16K17-cyc(Dap6E10)]", "IC50 (ComD1 EC50/IC50; β-gal reporter)": 7.57}
